One test has as its target T1, His-Gαi3 (GDP-loaded) (UniProt P08753 1-354).
T1 construct: Purified protein, GDP-loaded
As to the kind of experiment: GST pulldown: GST-GIV-CT on glutathione-agarose beads with 0.01-3 µM His-Gαi3; anti-His band intensities fitted to a single-site hyperbola; three experiments.

The target of a further test is T2, GST-Gαi3 (GDP loaded) (rat, UniProt P08753 1-354).
T2 construct: not shown: glutathione S-transferase tag encoded by pGEX-4T-1
Description: GST pulldown with GDP-loaded GST-Gαi3, anti-His immunoblot.

T2 sequence (P08753 whole entry): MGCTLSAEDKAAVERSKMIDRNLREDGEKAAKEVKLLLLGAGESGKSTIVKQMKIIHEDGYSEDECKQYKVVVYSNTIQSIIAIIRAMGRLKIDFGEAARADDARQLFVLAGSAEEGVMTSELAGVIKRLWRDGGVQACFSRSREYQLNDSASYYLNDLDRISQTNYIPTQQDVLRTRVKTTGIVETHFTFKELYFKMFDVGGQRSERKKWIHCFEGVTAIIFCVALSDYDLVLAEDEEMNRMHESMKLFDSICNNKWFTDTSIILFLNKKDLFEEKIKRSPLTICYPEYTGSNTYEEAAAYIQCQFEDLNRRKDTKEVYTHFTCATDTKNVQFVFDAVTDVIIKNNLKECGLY
T1 sequence (P08753 whole entry): as above

B1: GST-GIV-CT (amino acids 1660-1870) (other)
chain: ETLESRHHKIKTGSPGSEVVTLQQFLEESNKLTSVQIKSSSQENLLDEVMKSLSVSSDFLGKDKPVSCGLARSVSGKTPGDFYDRRTTKPEFLRPGPRKTEDTYFISSAGKPTPGTQGKIKLVKESSLSRQSKDSNPYATLPRASSVISTAEGTTRRTSIHDFLTKDSRLPISVDSPPAAADSNTTAASNVDKVQESRNSKSRSREQQSS
notes: Immobilised on glutathione-agarose beads; also called GST-tagged GIV-CT peptide; not shown: glutathione S-transferase tag
Turning to B1, the Kd – broadly, a measure of binding affinity in units of concentration – with His-Gαi3 (GDP-loaded) came out at 240 nM.

B2: TAT-GIV-CT-F1685A (peptide)
chain: MRGSHHHHHHGMASMTGGQQMGRDLYDDDDKDRWGSKLGYGRKKRRQRRRGGSTMSGYPYDVPDYAGSMGGSGHSGETLESRHHKIKTGSPGSEVVTLQQALEESNKLTSVQIKSSSQENLLDEVMKSLSVSSDFLGKDKPVSCGLARSVSGKTPGDFYDRRTTKPEFLRPGPRKTEDTYFISSAGKPTPGTQGKIKLVKESSLSRQSKDSNPYATLPRASSVISTAEGTTRRTSIHDFLTKDSRLPISVDSPPAAADSNTTAASNVDKVQESRNSKSRSREQQSS
notes: Recombinant, made in E. coli; GEF-deficient mutant; also called TAT-GIV-CT-FA; FA
On to B2, for which, in the test with GST-Gαi3 (GDP loaded), the binding result is listed as “no binding”.

The values above are taken from US20180104307A1 (University of California, published 2018).
